Data: paper PMC9481563 (2022)
Where two headings read alike, the source gives them in different places. Where no end group is shown, it is not given here. [ ]: non-standard residue; d: D form. pY = N[C@@H](Cc1ccc(OP(=O)(O)O)cc1)C(=O)O; pT = C[C@@H](OP(=O)(O)O)[C@H](N)C(=O)O; pS = N[C@@H](COP(=O)(O)O)C(=O)O

Assays:
Assay in all cases: FP
[1] = target: T1, PIK3R1 (p85) N-terminal SH2 domain (321-433) (human, UniProt P27986 321-433)
[2] = target: T2, PIK3R1 (p85) C-terminal SH2 domain (614-724) (human, UniProt P27986 614-724)
[3] = target: T1, PIK3R1 (p85) N-terminal SH2 domain …; remark: listed apart in the source
[4] = target: T2, PIK3R1 (p85) C-terminal SH2 domain …; remark: listed apart in the source

T1 sequence (P27986 321-433): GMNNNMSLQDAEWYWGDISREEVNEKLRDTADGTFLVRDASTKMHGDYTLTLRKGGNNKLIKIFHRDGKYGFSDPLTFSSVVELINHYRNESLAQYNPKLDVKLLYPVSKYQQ
T2 sequence (P27986 614-724): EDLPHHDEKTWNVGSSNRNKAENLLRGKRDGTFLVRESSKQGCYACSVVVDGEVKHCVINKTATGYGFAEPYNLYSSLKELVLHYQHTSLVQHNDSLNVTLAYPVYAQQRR

| Binder | Kd [1] [nM] | Kd [2] [nM] | Kd [3] [nM] | Kd [4] [nM] |
| --- | --- | --- | --- | --- |
| RSRLLHSD[pY]MNMTPRR [p0CD28, CD28 peptide with phosphotyrosine only (pY191)] | 104 | 11 |  |  |
| GRKGSGD[pY]MPM[pS]PKS [ppIRS1, IRS1 peptide dually phosphorylated (pY632 + pS636)] |  |  | 306 | 5.1 |
| GRKGSGDYMPMSPKS (phosphotyrosine at Y632; phosphoserine at S636; C-terminal lysine-ε-carboxyfluorescein label) [CF-ppIRS1, carboxyfluorescein-labelled pY632 + pS636 IRS1 peptide] | 383 | 5.7 | 412 | 10.6 |
| RSRLLHSD[pY]MNM[pT]PRR [ppCD28, CD28 peptide dually phosphorylated (pY191 + pT195)] | 285 | 22.9 |  |  |
| GRKGSGD[pY]MPMSPKS [p0IRS1, IRS1 peptide with phosphotyrosine only (pY632)] |  |  | 184 | 8.1 |
